Reference: paper PMC10465699, “Interaction patterns of methoprene-tolerant and germ cell-expressed Drosophila JH receptors suggest significant differences in their functioning” (Frontiers in Molecular Biosciences, 2023)

T1: Germ cell-expressed C-terminus (GceC, 661-959 aa) (D. melanogaster, UniProt Q9VXW7 661-959)
T1 construct: Germ cell-expressed (Gce) protein, D. melanogaster, UniProt Q9VXW7, residues 661-959 (C-terminal fragment); No step that removes the His tag is described; also called Gce C-terminus
T1 sequence (looked up): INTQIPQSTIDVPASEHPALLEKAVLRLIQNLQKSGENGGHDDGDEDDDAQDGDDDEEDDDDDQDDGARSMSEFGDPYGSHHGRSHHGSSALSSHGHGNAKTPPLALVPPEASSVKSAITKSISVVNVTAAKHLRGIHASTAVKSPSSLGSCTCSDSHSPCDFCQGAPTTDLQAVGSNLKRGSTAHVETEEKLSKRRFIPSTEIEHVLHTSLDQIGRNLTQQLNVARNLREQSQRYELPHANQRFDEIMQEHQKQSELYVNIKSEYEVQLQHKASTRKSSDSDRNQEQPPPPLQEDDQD

B1: Fushi tarazu factor-1 ligand-binding domain (Ftz-F1 LBD, 786-1027 aa) (domain or fragment, D. melanogaster, UniProt P33244 786-1027, looked up)
chain: ALIEPLRVSPMIREFVQSIDDREWQTQLFALLQKQTYNQVEVDLFELMCKVLDQNLFSQVDWARNTVFFKDLKVDDQMKLLQHSWSDMLVLDHLHHRIHNGLPDETQLNNGQVFNLMSLGLLGVPQLGDYFNELQNKLQDLKFDMGDYVCMKFLILLNPSVRGIVNRKTVSEGHDNVQAALLDYTLTCYPSVNDKFRGLVNILPEIHAMAVRGEDHLYTKHCAGSAPTQTLLMEMLHAKRKG
notes: 15N- or 13C,15N-labelled where it was the observed protein in NMR, unlabelled otherwise; also called LBD Ftz-F1; source: E. coli BL21(DE3), purified (Ni-NTA, thrombin digestion, SEC); not shown: His6, N-terminal, cleaved
B2: Methoprene-tolerant C-terminus (MetC, 509-716 aa) (domain or fragment, D. melanogaster, UniProt Q9VYW2 509-716, looked up)
chain: AGRQKVQEMKEKFSTIIKAEMPTQSSSPDLPASQAPQQLERIVLYLIENLQKSVDSAETVGGQGMESLMDDGYSSPANTLTLEELAPSPTPALALVPPAPSSVKSSISKSVSVVNVTAARKFQQEHQKQRERDREQLKERTNSTQGVIRQLSSCLSEAETASCILSPASSLSASEAPDTPDPHSNTSPPPSLHTRPSVLHRTLTSTLR
notes: Methoprene-tolerant (Met) protein, D. melanogaster, UniProt Q9VYW2, residues 509-716 (C-terminal fragment); 15N- or 13C,15N-labelled where it was the observed protein in NMR, unlabelled where it was added to 15N Ftz-F1 LBD; also called Met C-terminus; source: E. coli BL21(DE3), purified (Ni-NTA, on-column SUMO hydrolase digestion, SEC); not shown: His6, N-terminal, cleaved; SUMO, N-terminal, …
B3: Met^PEP, 19-residue peptide of the novel NR-box of MetC (peptide)
peptide: LERIVLYLIENLQKSVDSA
notes: 19-residue peptide representing the novel NR-box in the C-terminus of Met, D. melanogaster, UniProt Q9VYW2; also called MetC^PEP; source: synthetic peptide (PSL GmbH, Heidelberg)

Tests used:
Conditions in all cases: both partners purified
[1] = target: T1, Germ cell-expressed C-terminus (GceC, …); assay: NMR titration; 15N-HSQC of 15N Ftz-F1 LBD without and with an equimolar quantity of unlabelled MetC or GceC; 20 mM sodium phosphate pH 6.8, 50 mM NaCl, 1 mM TCEP, 0.5 mM EDTA; 29 C
[2] = target: B1; assay: NMR titration; 15N-HSQC of 150 uM 15N-MetC with unlabelled Ftz-F1 LBD at 0, 40, 82, 122, 199, 301 and 500 uM (cross-mixing); 20 mM Bis-Tris pH 6.5, 150 mM NaCl, 5 mM bME; 18 C
[3] = target: B1; assay: ITC; 1.06 mM Met^PEP titrated into 0.035 mM Ftz-F1 LBD; 25 C; 20 mM HEPES pH 6.8, 150 mM NaCl, 1 mM TCEP; duplicate, global fit to A + B = AB

Binder: B1
binding result [1]: binds

Binder: B2
binding result [2]: binds

Binder: B3
Kd [3]: 9.9 µM
dH [3]: -1.1 kcal/mol
stoichiometry N [3]: 1
